# Assay results: paper doi:10.1101/2021.03.15.435402, “GTP and lipids control self-assembly and functional promiscuity of Dynamin2 molecular machinery” (bioRxiv, 2021)
# What was measured:
# [1] = molecular target: the molecule itself; assay: single-molecule fluorescence microscopy (oligomer size from mEGFP intensity); Dyn2-mEGFP 20 nM pulse-perfused on membrane nanotubes (40 mol% PE, 0.1 mol% Cy5-PE), protein washed off from the bulk, no nucleotide (apo); total fluorescence divided by the mean intensity of a single mEGFP
# [2] = molecular target: the molecule itself; assay: single-molecule fluorescence microscopy (oligomer size from mEGFP intensity); Dyn2-mEGFP (10-20 nM) premixed with 0.2 mM LUVs (Rh-DOPE) added to nanotubes, no GTP; mEGFP fluorescence colocalized with LUVs tethered to the nanotube
protein,measurement,setting,value
"Dyn2 labeled with monomeric GFP (Dyn2-mEGFP) (natural protein, UniProt P50570 1-870, looked up, Dynamin 2 (Dyn2) fused to monomeric EGFP; source: purified) MGNRGMEELIPLVNKLQDAFSSIGQSCHLDLPQIAVVGGQSAGKSSVLENFVGRDFLPRGSGIVTRRPLILQLIFSKTEHAEFLHCKSKKFTDFDEVRQEIEAETDRVTGTNKGISPVPINLRVYSPHVLNLTLIDLPGITKVPVGDQPPDIEYQIKDMILQFISRESSLILAVTPANMDLANSDALKLAKEVDPQGLRTIGVITKLDLMDEGTDARDVLENKLLPLRRGYIGVVNRSQKDIEGKKDIRAALAAERKFFLSHPAYRHMADRMGTPHLQKTLNQQLTNHIRESLPALRSKLQSQLLSLEKEVEEYKNFRPDDPTRKTKALLQMVQQFGVDFEKRIEGSGDQVDTLELSGGARINRIFHERFPFELVKMEFDEKDLRREISYAIKNIHGVRTGLFTPDLAFEAIVKKQVVKLKEPCLKCVDLVIQELINTVRQCTSKLSSYPRLREETERIVTTYIREREGRTKDQILLLIDIEQSYINTNHEDFIGFANAQQRSTQLNKKRAIPNQGEILVIRRGWLTINNISLMKGGSKEYWFVLTAESLSWYKDEEEKEKKYMLPLDNLKIRDVEKGFMSNKHVFAIFNTEQRNVYKDLRQIELACDSQEDVDSWKASFLRAGVYPEKDQAENEDGAQENTFSMDPQLERQVETIRNLVDSYVAIINKSIRDLMPKTIMHLMINNTKAFIHHELLAYLYSSADQSSLMEESADQAQRRDDMLRMYHALKEALNIIGDISTSTVSTPVPPPVDDTWLQSASSHSPTPQRRPVSSIHPPGRPPAVRGPTPGPPLIPVPVGAAASFSAPPIPSRPGPQSVFANSDLFPAPPQIPSRPVRIPPGIPPGVPSRRPPAAPSRPTIIRPAEPSLLD",stoichiometry N,[1],12 ± 6 mEGFP units
same,stoichiometry N,[2],38 ± 16 molecules
